Assay: label from the status in PepcDB records

For “MPGAMHDEPDHPELSITVPTLNEAEGLERFFAMLSAQQGVRFELVIADGGSTDGTPESARRLAAATPFAATVIETGRGRGRQMNAGAAAAAGDTLLFLHADCAFPDPLALRTALDAFTQTVAAGGSHRVAGHFRLRFERTDSAPSLPYYFYEWKARLHRPGCTHGDQGLLLGRRFFAEAGPFDESFPILEDVGLAERIAALGEWLLLPAEIVTSARRFEAEGLRERQTLNALLMNFAAMGWDPFLAELPRLYQSQDRAGRLLLGPVLRLIARLLRPLPRRERGRLWRETGRYVRANAWQIPFFLDVRRHFRQGTPVGEGETPRLDLHDRIFDRLTENGAGHRATALLVWIWFRLSLLREPLTPPAARNPEGNGSLEHHHHHH”, which protein production is on record?
Its protein production is “not failed”.

For “MPGFNYGGDQDEVYTPYRRVLVTGATGLLGRAVYKEFKNNDWDALGCGYNRARPFFLKCNLLDEDAVRGVIQSFQPHVIVHCAAERRPDVVERHTEAAMNLNVHACATLAKEAGGSFLIYISTDYVFDGRNPPYGENDAPNPLNLYGKSKLEGEREILRHCPGAAVLRVPILFGEVEKVEESAVTVLFERVQEGAESCTIDHCQQRFPTYTNDVARVCRNMAERALQDQSLRGIFHYSAKEQMTKYEMTCAIADAFNLPSSHLIPMTEQPAGAGAQRPQNAQLECSRLELLGLSVESTPFKNAIRDSLWPFQHDKRWRQTVFH”, which protein production is on record?
Its protein production is “not failed”.

For “MPGIDFDALYRGESPGEGLPPITTPPWDTKAPKDNVIGWHTGGWVHGDVLDIGCGLGDNAIYLARNGYQVTGLDISPTALTTAKRRASDAGVDVKFAVGDATKLTGYTGAFDTVIDCGMFHCLDDDGKRSYAASVHRATRPGATLLLSCFSNAMPPDEEWPRSTVSEQTLRDVLGGAGWDIESLEPATVRRELDGTEVEMAFWNVRAQRRGS”, which protein production is on record?
Its protein production is “failed”.

For “MPGIDKLPIEETLEDSPQTRSLLGVFEEDATAISNYMNQLYQAMHRIYDAQNELSAATHLTSKLLKEYEKQRFPLGGDDEVMSSTLQQFSKVIDELSSCHAVLSTQLADAMMFPITQFKERDLKEILTLKEVFQIASNDHDAAINRYSRLSKKRENDKVKYEVTEDVYTSRKKQHQTMMHYFCALNTLQYKKKIALLEPLLGYMQAQISFFKMGSENLNEQLEEFLANIGTSVQNVRREMDSDIETMQQTIEDLEVASDPLYVPDPDPTKFPVNRNLTRKAGYLNARNKTGLVSSTWDRQFYFTQGGNLMSQARGDVAGGLAMDIDNCSVMAVDCEDRRYCFQITSFDGKKSSILQAESKKDHEEWICTINNISKQIYLSENPEETAARVNQSALEAVTPSPSFQQRHESLRPAAGQSRPPTARTSSSGSLGSESTNLAALSLDSLVAPDTPIQFDIISPVCEDQPGQAKAFGQGGRRTNPFGESGGSTKSETEDSILHQLFIVRFLGSMEVKSDDHPDVVYETMRQILAARAIHNIFRMTESHLLVTCDCLKLIDPQTQVTRLTFPLPCVVLYATHQENKRLFGFVLRTSSGRSESNLSSVCYIFESNNEGEKICDSVGLAKQIALHAELDRRASEKQKEIERVKEKQQKELNKQKQIEKDLEEQSRLIAASSRPNQASSEGQFVVLSSSQSEESDLGEGGKKRESEA”, which protein production is on record?
Its protein production is “failed”.

With “MPGKKQEVQEELLEEQLEKAYQGRINNIKESFAGVLSVLKTANTKKLERITARSHNYLGLLHMIQGNHIKSITHSRQALEYFQRVQSLKDIADAKFNIASSLYKTDNFHDGLKGLLECRQIYKSIGEGRSECRSLKSIATIYEYWSDVNKAFLIYQECIDLATRHGDLAMLSNVYNPMSGLYLKRGDIETATKLSDKSIAIKKKIKDERGLAYSIYGKGKVFFAQQKFAQAETYFLQSLELQQKFGDKLGAGMVLNKLGLTYVEQKKYLQAEKILKQAVSLAEKHNVKVNVYKSYYSLYTLYKLQHKESNALQCLEQFVLHKENNVQSHTSDIIRSYEAANEIYRLEKDTKAQIDYLEIVQKKNTELDSFFYRVSHDLKGPISSLLGLNELIEKEQFDGEALKYFNMYKKLSTRIDAIVMDLITITRISSDKIVPVKIDFMQLIEDCIHSYAYFDNFEHIQFNIEVEEGISFQSEWVIVNTILQNLIENSIKYMRHDVKKPYVFIQVYTQGQMLCIKVTDNGQGISEEYQEKIYEMFFRANDKADGSGLGLYILKRAVERLQGTVSLKSKPGKGAAFTVCIKGE” as the sequence, how does the protein production read?
The protein production was “failed”.

With “MPGKREMQKCSLITVLSLSVLMLAGCTTTYTMTTRTGEIIETQGKPEVDTATGMTKYADVYGYHRVMKTSEIVQTTEGASKLDWLEHHHHHH” as the sequence, how does the protein production read?
The protein production was “not failed”.

For “MPGTGLPIRGRRDPETIETRCLNNDQDSRLALIHAWLQTLPGSLGLRPETMEPASSDASFRRYFRLQAAAGTLIVMDAPPPHEDVRPFVHIDGLLREAGVNVPEIVAQDAGQGLLLLSDLGQDTFYQRIRAGISDAQLQSMYRDTLATLVRLQQASTAGLPAYDGARLAAELELFPEWYVGRHHGVTLDDKTAAALRQIFGLLAAEGDTGHRVLVHRDFHSPNLMVCDEPRYGPNPGVIDFQDALAGPLTYDLASLVTDARTTWEEPQQLDWAIRYWELARAAGLPVDADFAQFHRAYEWTGLQRNLRILGVFARLNHRDGKSIYLSHMPRVSGYVRQVAQRYGAFAPLLRLLDKLDDRQVQVGYTF”, which protein production is on record?
The protein production was “failed”.

With “MPGTNNEATRKEEVKKIVENRRRKAELIREQQIKKRNTIIAIGVGILVVLILVMVLAKSCSSGKKPAKTSATTAKQITTVAQTTVQETTTAEEYMYTTDVLNLRKSASAKSKLITQIGAGKKVQVISENGKWCQIKYGKDTGYVMKKYLSYSNMLD” as the sequence, how does the protein production read?
Its protein production is “failed”.

With “MPGVTVKDIDQHAVTKAVAVFLKKTGKLKVPDQMDIVKTAKFKELAPYDPDWFYVRCASILRHLYHRSPAGVGSITKIYGGRKRNGVHPSHFCRAADGAARKALQALEHARLVEKHPDGGRKLSSIGQRDLDRIANQIVFKQRDAAKQTGPIVISK” as the sequence, how does the protein production read?
The protein production was “failed”.

For “MPHAARSDAAALRAPAADDGAYGKPAIALHWIIALLIFAAFGLGLYMTDIPGFTPTKLKLYSYHKWAGITVLILAVLRVLWRLTHPAPAPVAGMPAWQQKAAEGAHIVLYLLILAVPLTGYLLSVAAGIKVVYLGLWELPMPFDKSDALKEIFQVAHEWLNWTMATIVVLHILAALKHHIVDSDGTLRRMLPFLR”, which protein production is on record?
The protein production was “failed”.

For “MPHAVQGQPENAVHPPQGTAWPGLEPPEGFLMANPRLSRRHVRRMRSERPPPTTRPPDWRFPMKSTLNLLLTVSLALSGAGLAQTAPNVPTQAAPTTAAPANAAQLAAEARDLTNRARTTYPAGSASIDQPLWKQAADRAEAAVSAAPNNPDVLRLRAQIYTEVGFWKQAESSWRAYFAVAPVAAGQNEARAAGNVQYNLGYAAYTRGQSAQAAAYFKACLTLDPQSVPCATWAARTALESGDYALAQNLYTQALSLAPTDKTLNYFAQVARNASTYGPAATQAFSRAYASLDAGRRAEALAGFQEAARSAPNFPEAQREAGRLALEAGDTGAALSAYQALAALPGATDSDRYNLGLAQEGQQYGLRAVQTFRTAYGKYSAGDKAGAEAGFLQATTASANYGKAWAWLGRVRYEAKNYAGAAEAYGRAVALDPGDKTSAYFLKLAQQGK”, which protein production is on record?
The protein production was “failed”.

For “MPHKLLPWLAIASAMSAFTLQAQPMPDTELLMGSYTQGKSEGIYRFGFNSQTGLIDAKPLQVIKSDNPSWLTLSKDQRHLFAVNENGPGQKDVVGKVSSFAIDPKTRQITPINQVQSRGEEPTHSSLSYDGRYLFVANYAVNPDPGGALTVVPVGKDGTLSEAVQVLPLGPGSKVNSERQLSSHVHLAVPTPDNKYVVSADLGADKLFVYRYDANQAKPLQPAKVPTVQLPGGSGPRHTLFSADGKHAWLVLEMTAQVAVFDYHDGGFKQTQLVDMKNKGVEEKNGGGALHTSPDGKFLYVTNRGDANQVVVFRIDQASGKLEEIQRRSLEGKEPREFAFDPTGKFMLFANQKSNQIVTVRRDPQSGMIGDTVQKFDADSPSYLRFLTEK”, which protein production is on record?
The protein production was “failed”.

Which protein production does the source give for “MPHPFVYHDCPMSRLLFRYICTETAVPFALGLTVFTFVLLMGRLLKLAEMVFARGVPFLDVTRLILYMLPSFFLVAIPMAFLLAVLLAMGRLSADSEVTAMKASGMSIGTIAVPVIAFGVITYAATTFVSVYALPWGNTAFKKFLHGVIETRAAMSITEKVFNDEFPGLVIYVDGFDPKSGRISGILIHDERNPDEPSTIFAASGQLATNPEERIVRLRLNNGGIHRGIGTGGYRLVEFTSYDLSIALQREQQKARLNEEDMTLGELLARMKSPGEQPKLVREMHFELHKRFALPFACVVFAVIAVPLGIQNQRSGRAGGFAAGIILLMLYYILMSAGKTVNEKGIAPAFVAVWIPNVLFLGLGIFLLKRAALDRAIPLAEYVTTALAWVRHRFERRKT” here?
Its protein production is “failed”.

Reference: a protein production outcome set (Wang et al. 2014)
